Literature values, collected in publication PMC3471675.
Where two headings read alike, the source gives them in different places.

Assays:
IL-2Rβ (Homo sapiens) [1] = target: IL-2Rβ (Homo sapiens) (UniProt P14784)
IL-2Rβ (Homo sapiens) [2] = target: IL-2Rβ (Homo sapiens) (UniProt P14784); remark: listed apart in the source
IL-4Rα (Homo sapiens) = IL-4Rα (Homo sapiens) (UniProt P24394)
IL-7Rα (Homo sapiens) [3] = target: IL-7Rα (Homo sapiens) (UniProt P16871)
γc (Homo sapiens) = γc (Homo sapiens) (UniProt P31785)
Chain of UniProt P31785 (P31785 23-262): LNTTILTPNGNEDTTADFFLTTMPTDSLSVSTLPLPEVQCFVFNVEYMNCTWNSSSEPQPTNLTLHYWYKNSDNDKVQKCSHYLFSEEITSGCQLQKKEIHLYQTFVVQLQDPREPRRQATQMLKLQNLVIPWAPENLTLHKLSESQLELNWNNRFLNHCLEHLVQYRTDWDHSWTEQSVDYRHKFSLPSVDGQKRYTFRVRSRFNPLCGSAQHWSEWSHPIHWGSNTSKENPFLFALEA

IL-7Rα (Homo sapiens) [4] = target: IL-7Rα (Homo sapiens) (UniProt P16871); remark: listed apart in the source
IL-21Rα (Homo sapiens) = IL-21Rα (Homo sapiens) (UniProt Q9HBE5)
Chain of UniProt Q9HBE5 (Q9HBE5 20-232): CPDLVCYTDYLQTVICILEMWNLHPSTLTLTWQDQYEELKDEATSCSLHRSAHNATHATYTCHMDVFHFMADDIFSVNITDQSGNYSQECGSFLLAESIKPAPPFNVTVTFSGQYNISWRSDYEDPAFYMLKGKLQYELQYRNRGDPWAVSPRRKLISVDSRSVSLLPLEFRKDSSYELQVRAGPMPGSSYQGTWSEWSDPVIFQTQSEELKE

Chain of UniProt P24394 (P24394 26-232): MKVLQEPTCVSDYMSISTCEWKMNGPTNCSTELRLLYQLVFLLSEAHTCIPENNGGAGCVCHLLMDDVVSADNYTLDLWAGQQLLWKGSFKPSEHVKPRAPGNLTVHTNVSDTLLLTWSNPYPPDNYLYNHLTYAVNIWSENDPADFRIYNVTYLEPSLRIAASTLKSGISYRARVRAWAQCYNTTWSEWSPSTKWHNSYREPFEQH

IL-2 (from UniProt P60568)
Kd (IL-2Rβ (Homo sapiens) [1]): 530 nM

IL-2Rβ (from UniProt P14784)
Kd (IL-2Rβ (Homo sapiens) [2]): 3000 nM

IL-4 (from UniProt P05112)
Kd (IL-4Rα (Homo sapiens)): 0.15 nM

IL-7 (from UniProt P13232)
Kd (IL-7Rα (Homo sapiens) [3]): 59 nM

IL-7Rα (from UniProt P16871)
Kd (γc (Homo sapiens)): 3000 nM
Kd (IL-7Rα (Homo sapiens) [4]): 610000 nM

IL-21 (from UniProt Q9HBE4)
Kd (IL-21Rα (Homo sapiens)): 0.07 nM
